Patent US20260242478A1 (published 2026)
Where no end group is shown, it is not given here.

B1: Phage-2646 (peptide)
peptide: QPKWCTPDWMCTGI
modifications: cysteine pairing not given here; also: displayed on phage as pIII fusion, fusion junction and sequence not given here
notes: Clonal phage of the Peptide-180 library, tested as crude phage supernatant; not shown: pIII filament protein of the bacteriophage
B2: Phage-2648 (peptide)
peptide: EYKWCTPIWMCQGN
modifications: cysteine pairing not given here; also: displayed on phage as pIII fusion, fusion junction and sequence not given here
notes: as for B1
B3: Phage-2642 (peptide)
peptide: DLKWCIPSWMCTST
modifications: cysteine pairing not given here; also: displayed on phage pIII, linker not given here
notes: as for B1
B4: Phage-2641 (peptide)
peptide: AEKLCIPDWMCDVY
modifications: cysteine pairing not given here; also: displayed on phage pIII, linker not given here
notes: as for B1
B5: Phage-2649 (peptide)
peptide: TWKWCTPAWMCSVM
modifications: cysteine pairing not given here; also: displayed on phage as pIII fusion, fusion junction and sequence not given here
notes: as for B1
B6: Phage-2640 (peptide)
peptide: VPKWCTPEWMCIIH
modifications: cysteine pairing not given here; also: displayed on phage pIII, linker not given here
notes: as for B1
B7: Phage-2643 (peptide)
peptide: VEKLCKPAWMCNGQ
modifications: cysteine pairing not given here; also: displayed on phage pIII, linker not given here
notes: as for B1
B8: Phage-2639 (peptide)
peptide: VGNWCTPMWMCQAF
modifications: cysteine pairing not given here; also: displayed on phage pIII, linker not given here
notes: as for B1
B9: Phage-2645 (peptide)
peptide: FPKWCTPEWMCSLT
modifications: cysteine pairing not given here; also: displayed on phage pIII, linker not given here
notes: as for B1
B10: Phage-2644 (peptide)
peptide: PERMCVPQWMCTVT
modifications: cysteine pairing not given here; also: displayed on phage pIII, linker not given here
notes: as for B1
B11: Phage-2647 (peptide)
peptide: LVKWCIPDWMCSLS
modifications: cysteine pairing not given here; also: displayed on phage as pIII fusion, fusion junction and sequence not given here
notes: as for B1

Each binder was assayed against T1, PSMA Fab (006 PSMA Fab) (assay: clonal phage ELISA on biotinylated PSMA Fab captured on neutravidin plates, anti-M13 HRP detection;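 note: crude clonal phage supernatants tested, before phage were added, wells were pretreated with PSMA antigen in blocking buffer or with blocking buffer only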).
T1 construct: also called Anti-PSMA Fab; anti-PSMA Fab
Procedure: (§1) Clonal phage were harvested as crude supernatants and screened via standard ELISAs. […] Prior to the addition of clonal phage. wells were incubated with blocking buffer and PSMA antigen or blocking buffer alone. Without washing or aspirating, clonal phage supernatants were then added to the wells and incubated for a short time. Wells were then washed followed by detection of bound phage using a horse radish conjugated anti-M13 antibody.

Compared with DWKWCIPAWMCSQD [Phage-2748], GNLWCSPPWMCFGM [Phage-2749] is lower in “Phage binding ELISA signal, Anti-PSMA Fab” value: 0.697 for the first, 0.696 for the second.

Compared with DVKWCKPRWMCNRD [Phage-2750], GNSWCTPQWMCTGF [Phage-2740] is higher in “Phage binding ELISA signal, Anti-PSMA Fab” value: 0.695 for the first, 0.712 for the second.

Going from IMKWCTPTWMCEMG [Phage-2743] to SEKWCTPAWMCGDM [Phage-2747], the “Phage binding ELISA signal, Anti-PSMA Fab” value falls from 0.708 to 0.7.

First: MSKWCVPTWMCQWQ [Phage-2741]
Second: TNKLCIPTWMCSGF [Phage-2745]
The “Phage binding ELISA signal, Anti-PSMA Fab” value of the first is higher: 0.711 for the first, 0.703 for the second.

First: FDKWCTPPWMCKVF [Phage-2744]
Second: VVKMCKPLWMCGIS [Phage-2746]
The “Phage binding ELISA signal, Anti-PSMA Fab” value of the first is higher: 0.708 for the first, 0.701 for the second.

DIKRCTPAWMCSWM [Phage-2742] was tested, and the “Phage binding ELISA signal, Anti-PSMA Fab” value was 0.709.

What follows are binders tested against T2, PSMA Fab (biotinylated (site not stated)) (assay: phage ELISA, biotinylated PSMA Fab on neutravidin plate, anti-M13-HRP detection, blocking buffer alone).
T2 construct: Biotinylated PSMA Fab captured on neutravidin plates in the phage ELISA; also called Anti-PSMA Fab; 006 PSMA Fab

First: LQKWCIPAWMCSST [Phage-2657]
Second: LQNWCVPAWMCELM [Phage-2651]
The “Phage binding ELISA signal, Anti-PSMA Fab” value of the first is lower: 0.92 for the first, 0.941 for the second.

Compared with EFKWCIPMWMCQAN [Phage-2665], FVNMCKPAWMCSLL [Phage-2655] is higher in “Phage binding ELISA signal, Anti-PSMA Fab” value: 0.896 for the first, 0.923 for the second.

Going from MPKWCTPQWMCEMY [Phage-2658] to APKWCTPSWMCQQV [Phage-2661], the “Phage binding ELISA signal, Anti-PSMA Fab” value falls from 0.92 to 0.908.

First: HEKWCTPPWMCELI [Phage-2654]
Second: DYKWCTPPWMCLVD [Phage-2662]
The “Phage binding ELISA signal, Anti-PSMA Fab” value of the first is higher: 0.929 for the first, 0.904 for the second.

Going from DVKWCIPPWMCPSF [Phage-2650] to GEHWCTPAWMCSVM [Phage-2659], the “Phage binding ELISA signal, Anti-PSMA Fab” value falls from 0.944 to 0.919.

Compared with ETKWCIPVWMCEHK [Phage-2653], AIKWCIPAWMCAQA (cysteine pairing not given here; also: displayed on phage as pIII fusion) [Phage-2656] is lower in “Phage binding ELISA signal, Anti-PSMA Fab” value: 0.934 for the first, 0.92 for the second.

Going from APHLCIPKWMCNPS [Phage-2664] to VEKWCRPSWMCQQV [Phage-2660], the “Phage binding ELISA signal, Anti-PSMA Fab” value rises from 0.899 to 0.914.

Compared with VVKWCTPAWMCSLN [Phage-2663], SNHLCTPPWMCYGF [Phage-2652] is higher in “Phage binding ELISA signal, Anti-PSMA Fab” value: 0.902 for the first, 0.939 for the second.

These binders were tested against T3, PSMA Fab (006 PSMA Fab) (biotinylated (site not given)) (assay: clonal phage ELISA; biotinylated PSMA Fab on neutravidin plate, blocking buffer alone; anti-M13 HRP detection;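 note: crude clonal phage supernatants added without washing to wells pretreated with blocking buffer with or without PSMA antigen, short incubation, then washed before detecting bound phage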).
T3 construct: also called Anti-PSMA Fab; anti-PSMA Fab

Going from B1 to B2, the “Phage binding ELISA signal, Anti-PSMA Fab” value falls from 0.954 to 0.95.

B3 and B4 are the same in “Phage binding ELISA signal, Anti-PSMA Fab” value: 0.957 for the first, 0.957 for the second.

Going from B5 to B6, the “Phage binding ELISA signal, Anti-PSMA Fab” value rises from 0.947 to 0.958.

Compared with B7, B8 is higher in “Phage binding ELISA signal, Anti-PSMA Fab” value: 0.956 for the first, 0.961 for the second.

Going from B9 to B10, the “Phage binding ELISA signal, Anti-PSMA Fab” value rises from 0.955 to 0.956.

For B11, the “Phage binding ELISA signal, Anti-PSMA Fab” value was 0.952.

These binders were tested against T1, PSMA Fab (006 PSMA Fab) (assay: clonal phage ELISA on captured PSMA Fab, wells pre-incubated with PSMA antigen as competitor, anti-M13 HRP detection;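 note: crude clonal phage supernatants added, with no intervening wash, to wells preincubated with PSMA antigen in blocking buffer, incubated briefly, then washed before detecting bound phage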).
Procedure: as §1

First: DWKWCIPAWMCSQD [Phage-2748]
Second: GNLWCSPPWMCFGM [Phage-2749]
The “Phage binding ELISA signal, Anti-PSMA Fab with PSMA antigen” value of the first is lower: 0.0645 for the first, 0.0732 for the second.

Compared with DVKWCKPRWMCNRD [Phage-2750], GNSWCTPQWMCTGF [Phage-2740] is lower in “Phage binding ELISA signal, Anti-PSMA Fab with PSMA antigen” value: 0.0701 for the first, 0.0596 for the second.

Compared with IMKWCTPTWMCEMG [Phage-2743], SEKWCTPAWMCGDM [Phage-2747] is lower in “Phage binding ELISA signal, Anti-PSMA Fab with PSMA antigen” value: 0.122 for the first, 0.0842 for the second.

Going from MSKWCVPTWMCQWQ [Phage-2741] to TNKLCIPTWMCSGF [Phage-2745], the “Phage binding ELISA signal, Anti-PSMA Fab with PSMA antigen” value falls from 0.0979 to 0.0715.

First: FDKWCTPPWMCKVF [Phage-2744]
Second: VVKMCKPLWMCGIS [Phage-2746]
The “Phage binding ELISA signal, Anti-PSMA Fab with PSMA antigen” value of the first is higher: 0.143 for the first, 0.0564 for the second.

For DIKRCTPAWMCSWM [Phage-2742], the “Phage binding ELISA signal, Anti-PSMA Fab with PSMA antigen” value was 0.0807.

What follows are binders tested against T2, PSMA Fab (assay: phage ELISA, biotinylated PSMA Fab on neutravidin plate, anti-M13-HRP detection, competitor PSMA antigen pre-incubated).
Procedure: as §1

Compared with LQKWCIPAWMCSST [Phage-2657], LQNWCVPAWMCELM [Phage-2651] is lower in “Phage binding ELISA signal, Anti-PSMA Fab with PSMA antigen” value: 0.0717 for the first, 0.068 for the second.

Compared with EFKWCIPMWMCQAN [Phage-2665], FVNMCKPAWMCSLL [Phage-2655] is higher in “Phage binding ELISA signal, Anti-PSMA Fab with PSMA antigen” value: 0.0753 for the first, 0.0949 for the second.

Going from MPKWCTPQWMCEMY [Phage-2658] to APKWCTPSWMCQQV [Phage-2661], the “Phage binding ELISA signal, Anti-PSMA Fab with PSMA antigen” value rises from 0.0641 to 0.121.

Compared with HEKWCTPPWMCELI [Phage-2654], DYKWCTPPWMCLVD [Phage-2662] is higher in “Phage binding ELISA signal, Anti-PSMA Fab with PSMA antigen” value: 0.0717 for the first, 0.083 for the second.

Going from DVKWCIPPWMCPSF [Phage-2650] to GEHWCTPAWMCSVM [Phage-2659], the “Phage binding ELISA signal, Anti-PSMA Fab with PSMA antigen” value rises from 0.0771 to 0.68.

Compared with ETKWCIPVWMCEHK [Phage-2653], AIKWCIPAWMCAQA (cysteine pairing not given here; also: displayed on phage as pIII fusion) [Phage-2656] is lower in “Phage binding ELISA signal, Anti-PSMA Fab with PSMA antigen” value: 0.122 for the first, 0.0786 for the second.

First: APHLCIPKWMCNPS [Phage-2664]
Second: VEKWCRPSWMCQQV [Phage-2660]
The “Phage binding ELISA signal, Anti-PSMA Fab with PSMA antigen” value of the first is higher: 0.105 for the first, 0.09 for the second.

Going from VVKWCTPAWMCSLN [Phage-2663] to SNHLCTPPWMCYGF [Phage-2652], the “Phage binding ELISA signal, Anti-PSMA Fab with PSMA antigen” value falls from 0.0846 to 0.0665.

What follows are binders tested against T3, PSMA Fab (006 PSMA Fab) (assay: clonal phage ELISA; biotinylated PSMA Fab on neutravidin plate, wells pre-incubated with PSMA antigen as competitor; anti-M13 HRP detection;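 note: crude clonal phage supernatants added to antigen-treated wells without a wash, incubated briefly, then bound phage read out via horse radish–conjugated anti-M13 antibody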).
Procedure: as §1

First: B1
Second: B2
The “Phage binding ELISA signal, Anti-PSMA Fab with PSMA antigen” value of the first is higher: 0.105 for the first, 0.0626 for the second.

First: B3
Second: B4
The “Phage binding ELISA signal, Anti-PSMA Fab with PSMA antigen” value of the first is higher: 0.0977 for the first, 0.0771 for the second.

Compared with B5, B6 is lower in “Phage binding ELISA signal, Anti-PSMA Fab with PSMA antigen” value: 0.113 for the first, 0.0705 for the second.

First: B7
Second: B8
The “Phage binding ELISA signal, Anti-PSMA Fab with PSMA antigen” value of the first is lower: 0.0808 for the first, 0.0864 for the second.

Going from B9 to B10, the “Phage binding ELISA signal, Anti-PSMA Fab with PSMA antigen” value rises from 0.0592 to 0.107.

B11 was tested, and the “Phage binding ELISA signal, Anti-PSMA Fab with PSMA antigen” value was 0.0865.
